From patent US4285932A, “Enzyme derivatives for use in the treatment of venous thrombosis” (Beecham Group Limited, priority 1978, dated 1981)

How the values were obtained:
[1] = system: streptokinase-human plasminogen activator complex; test: Residual enzyme activity of acylated streptokinase-human plasminogen activator complex; assay type: biochemical; details: freeze-dried powder
Method: The time for which the reaction is allowed to proceed depends upon the blocking reagent employed, the temperature at which the reaction is carried out and the enzyme selected for blocking. The optimum time period for any particular circumstances may be selected by following the decrease in enzymic activity by incubating aliquots with a chromogenic or fluorogenic substrate.

[2] = system: radio-labelled clot in the inferior vena cava; test: In vivo fibrinolytic enzyme test: radio-labelled clot in the inferior vena cava of the rabbit; parameters: species or system New Zealand white rabbit; details: systemic infusion, blood radioactivity at least twice background within six hours without death
Text: The agent under test is introduced into the bloodstream at a point where it must pass through the heart to ensure that the agent will be thoroughly mixed with venous blood. Non-specific lytic enzymes attack blood proteins and cause death before any lysis of the clot is observed. Enzymes which have a degree of specificity for fibrin lyse the clot at a dose lower than the lethal dose.
A New Zealand white rabbit (2.5-3.5 kg) is anaesthetised and three cannulas are inserted into the anterior facial vein (referred to as cannula 1 in this description), the left carotid artery (referred to as cannula 2) and the left external iliac vein (referred to as cannula 3). […] The quantity of 50 μl is determined arbitrarily, and represents an amount between the minimum quantity which can be measured accurately and the maximum quantity which can be injected without excessive disturbance of physiological conditions within the isolated vein portion. […] The first swab is transferred to a counting vial, and the level of γ -radiation is measured. […]
Constriction is required in order to prevent dislodgement of the clot. […] A second blood sample (P10) is withdrawn into citrate buffer as above and counted as previously described ten minutes after Po This count is made to check that no additional radio-activity has been washed into the bloodstream, thereby giving an indication of the stability of the clot. […]

Molecule: p-Anisoyl Streptokinase-Human Plasminogen Activator Complex [Example 26]
- remaining share of the original enzyme activity [1]: less than 5%

B1: human plasmin: free proteolytic enzyme, in vivo fibrinolytic enzyme (protein, UniProt P00747 20-580; P00747 581-810, looked up)
Plasmin heavy chain A: EPLDDYVNTQGASLFSVTKKQLGAGSIEECAAKCEEDEEFTCRAFQYHSKEQQCVIMAENRKSSIIIRMRDVVLFEKKVYLSECKTGNGKNYRGTMSKTKNGITCQKWSSTSPHRPRFSPATHPSEGLEENYCRNPDNDPQGPWCYTTDPEKRYDYCDILECEEECMHCSGENYDGKISKTMSGLECQAWDSQSPHAHGYIPSKFPNKNLKKNYCRNPDRELRPWCFTTDPNKRWELCDIPRCTTPPPSSGPTYQCLKGTGENYRGNVAVTVSGHTCQHWSAQTPHTHNRTPENFPCKNLDENYCRNPDGKRAPWCHTTNSQVRWEYCKIPSCDSSPVSTEQLAPTAPPELTPVVQDCYHGDGQSYRGTSSTTTTGKKCQSWSSMTPHRHQKTPENYPNAGLTMNYCRNPDADKGPWCFTTDPSVRWEYCNLKKCSGTEASVVAPPPVVLLPDVETPSEEDCMFGNGKGYRGKRATTVTGTPCQDWAAQEPHRHSIFTPETNPRAGLEKNYCRNPDGDVGGPWCYTTNPRKLYDYCDVPQCAAPSFDCGKPQVEPKKCPGR
Plasmin light chain B: VVGGCVAHPHSWPWQVSLRTRFGMHFCGGTLISPEWVLTAAHCLEKSPRPSSYKVILGAHQEVNLEPHVQEIEVSRLFLEPTRKDIALLKLSSPAVITDKVIPACLPSPNYVVADRTECFITGWGETQGTFGAGLLKEAQLPVIENKVCNRYEFLNGRVQSTELCAGHLAGGTDSCQGDSGGPLVCFEKDKYILQGVTSWGLGCARPNKPGVYVRVSRFVTWIEGVMRNN
modifications: Plasmin
- dose giving a positive result in the in vivo fibrinolytic test [2]: 1×10^-7 to 5×10^-6 mol of active catalytic sites per kg of test animal
